T1: Human B7-H4 protein (Sino Biological, Cat #10738-H08H-100) (human, UniProt Q7Z7D3 25-258)
T1 construct: Bought protein; also called hB7-H4 protein
T1 sequence: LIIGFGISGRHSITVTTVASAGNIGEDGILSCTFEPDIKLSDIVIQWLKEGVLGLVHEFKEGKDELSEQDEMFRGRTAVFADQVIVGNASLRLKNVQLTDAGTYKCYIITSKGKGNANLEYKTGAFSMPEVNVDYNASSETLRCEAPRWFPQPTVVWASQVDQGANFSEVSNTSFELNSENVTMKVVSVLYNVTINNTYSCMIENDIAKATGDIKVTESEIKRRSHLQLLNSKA

T2: mouse B7-H4 on cells (MC38-mH4 and E.G7-OVA-mH4 overexpressing) (mouse, UniProt Q7TSP5 25-257)
T2 construct: whole, on cells; The species of the overexpressed protein is read from the label mH4
T2 sequence (looked up): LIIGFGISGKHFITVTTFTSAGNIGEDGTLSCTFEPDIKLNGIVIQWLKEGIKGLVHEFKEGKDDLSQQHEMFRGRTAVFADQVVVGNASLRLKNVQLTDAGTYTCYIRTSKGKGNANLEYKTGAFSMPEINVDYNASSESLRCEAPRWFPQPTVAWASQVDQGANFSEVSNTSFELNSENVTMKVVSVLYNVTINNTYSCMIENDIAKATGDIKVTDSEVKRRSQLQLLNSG

T3: mouse B7-H4 IgC-like domain protein (from a laboratory of Fujian Medical University) (mouse, UniProt Q7TSP5 153-241, limits assumed)
T3 construct: domain: IgC-like domain
T3 sequence (looked up): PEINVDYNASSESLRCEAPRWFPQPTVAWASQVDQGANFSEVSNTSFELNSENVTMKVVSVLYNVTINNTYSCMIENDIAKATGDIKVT

B1: Npsc-A8 single-chain antibody (scFv, V domains shown)
VH: QVQLQESGGGLMQVGGSLRLSCTASGFVFGDYGMNWVRQAPGKGLEWVSLIDTYGASTFYADSVKGRFTISRDNSKQTVFLQMDGLRADDTAMYFCAKPILMFPAFDLWGPGTMVTVSS
VL: DVVMTQSPSSLSASVGDRVTITCRASQGIRNDLAWYQKKPGKAPKRLIYAASSLQSGVPSRFSGSGYGAEFSLTISSLQPEDFATYFCLHHSQYPWTFGQGTKVDIK
notes: Soluble scFv from a phage display human natural scFv library; also called Npsc-A8 scFv; not shown: The scFv linker between the two variable domains, the domain order, and the tag detected with the anti-HA-tag antibody
B2: Npsc-A8 full-length antibody (antibody, V domains shown)
VH: B1 VH
VL: DVVMTQSPSSLSASVGDRVTITCRASQGIRNDLAWYQKKPGKAPKRLIYAASSLQSGVPSRFSGSGYGAEFSLTISSLQPEDFATYFCLHHSQYPWTFGQGTKVDIKR
notes: also called Npsc-A8 antibody

Key:
[1] = biological target: T1, Human B7-H4 protein (Sino Biological, …); test: ELISA, human B7-H4 protein coated at 2 µg/mL, scFv titrated from 20 to 0.05 µg/mL
Protocol: 4.2 Measurement of Affinity of the Npsc-A8 scFv [0142] (1) ELISA plate was placed in a clean bench, and activated under UV irradiation for more than 30 mins. Human B7-H4 protein (Sinobiological, a catalog number: 10738-HO8H-100) was coated onto wells of the ELISA plate overnight at 4° C. at 2 μg/mL. The Npsc-A8 single-chain antibody was diluted to 20 μg/mL, 10 μg/mL, 7.5 μg/mL, 5 μg/mL, 2.5 μg/mL, 1 μg/mL, 0.5 μg/mL, 0.25 μg/mL, 0.1 μg/mL, and 0.05 μg/mL, which were respectively added to wells in 100 μL per well. [0143] (2) The remaining steps were conducted according to steps (7) to (14) in Example 3. [0144] (3) The OD450 nm value was measured. A standard curve was plotted, and the EC₅₀ value was obtained.

[2] = biological target: T2, mouse B7-H4 on cells (MC38-mH4 and …); test: flow cytometry on MC38-mH4 cells
Protocol: (1) Resuspension of cells: After trypsin digestion, cells were centrifuged, the supernatant was discarded, and the cells were resuspended in PBS containing 1% (v/v) FBS and counted to adjust the concentration to 2×10⁶ cells/mL. [0126] (2) Setting controls: For a blank control, an isotype control, and samples to be tested, 100 μL of the resuspended cells in step (1) was added to each tube, so that each tube contains 2×10⁵ cells. [0127] […] A negative control tube was added with 50 μL of negative single-chain antibody, which was the monoclonal single-chain antibody that was negative in ELISA in Example 3. Tubes to be tested were respectively added with 50 μL of antibody candidates (i.e., Npsc-A8, Npsc-E7, Npsc-G10). The mixture in tubes was fully mixed, and incubated at 4° C. for 30 mins. During the incubation, the tubes were shaken every 10 mins to allow the cells to be fully reacted with the antibodies. [0128] (4) Washing of cells: An appropriate amount of PBS containing 1% (v/v) FBS was added to each tube. The tubes were centrifuged at 2000 rpm for 3 mins, and the supernatant was discarded. [0129] (5) Resuspension of cells: The cells in each tube were resuspended in 100 μL of PBS containing 1% FBS. [0130] […]

[3] = biological target: T3, mouse B7-H4 IgC-like domain protein …; test: ELISA, protein coated at 2 µg/mL
Protocol: (1) A 96-well ELISA plate was placed in a clean bench, and activated under UV irradiation for more than 30 mins. The human B7-H4 protein (Sinobiological, a catalog number: 10738-HO8H-100), mouse B7-H4 protein (from a laboratory of Fujian Medical University), mouse B7-H4 IgV-like domain protein (from a laboratory of Fujian Medical University), and mouse B7-H4 IgC-like domain protein (from a laboratory of Fujian Medical University) were respectively coated onto wells of the 96-well ELISA plate at a concentration of 2 μg/mL, and incubated at 4° C. overnight. The Npsc-A8 full-length antibody protein obtained in Example 5 was diluted to 10 μg/mL with PBS buffer, and added to wells in 100 μL per well. [0165] (2) The remaining steps were conducted according to steps (6) to (13) in Example 3. 6H3 and 8H4 were used as control antibodies. 6H3 is a mouse anti-human B7-H4 IgC domain antibody, referring to patent application publication number CN 104955475 A. 8H4 is a hamster anti-human B7-H4 IgV domain antibody, referring to DOI: 10.1016/s1074-7613 (03) 00152-3. [0166] (3) OD450 nm value was measured.

[4] = biological target: T2, mouse B7-H4 on cells (MC38-mH4 and …); test: flow cytometry on MC38-mH4 and E.G7-OVA-mH4 cells; the filing adds that at the same concentration it binds human tumor cells at a higher affinity than mouse tumor cells
Protocol: A negative control tube was added with 50 μL of negative single-chain antibody, which was the monoclonal single-chain antibody that was negative in ELISA in Example 3. Tubes to be tested were respectively added with 50 μL of antibody candidates (i.e., Npsc-A8, Npsc-E7, Npsc-G10). The mixture in tubes was fully mixed, and incubated at 4° C. for 30 mins. During the incubation, the tubes were shaken every 10 mins to allow the cells to be fully reacted with the antibodies. [0128] (4) Washing of cells: An appropriate amount of PBS containing 1% (v/v) FBS was added to each tube. The tubes were centrifuged at 2000 rpm for 3 mins, and the supernatant was discarded. [0129] (5) Resuspension of cells: The cells in each tube were resuspended in 100 μL of PBS containing 1% FBS. [0130] (6) Incubation with secondary antibody: An appropriate amount of fluorescently labeled secondary antibody was added to the isotype control tube and the test tubes, mixed thoroughly, and incubated at 4° C. in the dark for 30 mins. During the incubation, the tubes were shaken every 10 mins. [0131] (7) Washing of cells: 2 mL PBS was added to each tube, the tubes were centrifuged at 2000 rpm for 3 mins, and the supernatant was discarded. This process was conducted twice. [0132] (8) On-machine testing: Cells in each tube were resuspended in 200 μL PBS. […]

Binder	EC50 [1] [µg/mL]	binding result [2]	binding result [3]	binding result [4]
B1	2.02	binds	–	–
B2	–	–	no binding (tested: 10 µg/mL)	binds

From patent US20260274959A1 (FUJIAN MEDICAL UNIVERSITY, published 2026)
